Key:
human KLK5, active form [1] = molecular target: T1, human KLK5, active form (human, UniProt Q9Y337 67-293); assay: cell-based or functional assay
human KLK7, active form [2] = molecular target: T2, human KLK7, active form (human, UniProt P49862 30-253); assay: cell-based or functional assay
mouse KLK5 [3] = molecular target: mouse KLK5 (mouse); assay: cell-based or functional assay
mouse KLK7 [4] = molecular target: T3, mouse KLK7 (mouse, UniProt Q91VE3 26-249, limits assumed); assay: cell-based or functional assay
T3 sequence (Q91VE3 26-249 limits assumed): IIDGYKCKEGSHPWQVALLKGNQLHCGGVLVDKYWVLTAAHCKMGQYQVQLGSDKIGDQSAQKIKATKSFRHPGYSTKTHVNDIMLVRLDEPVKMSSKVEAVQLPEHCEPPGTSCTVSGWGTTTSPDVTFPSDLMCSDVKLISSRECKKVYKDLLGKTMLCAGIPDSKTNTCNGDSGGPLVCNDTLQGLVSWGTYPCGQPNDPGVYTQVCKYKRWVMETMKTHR

human KLK5, active form [5] = molecular target: T1, human KLK5, active form; assay: SPR (Biacore), antibody captured on Protein A chip, KLK as analyte, single-cycle kinetics, 25 C
Description: (§1) All screening assays were performed at 25° C. The running buffer used was 20 mM HEPES, 300 mM NaCl, 0.01% Tween-20, pH 7.5. Antibodies (1 μg/mL) were captured on Fc2-4 of a Series S ProteinA Sensor Chip (Cytiva) flowing at 10 μL/min for 30 s. Kinetics measurements were made in single-cycle kinetics mode with a series of 4-5 concentrations with top concentration of 25-100 nM and serial dilution 4-fold. Contact time was typically 300 s and dissociation time ranged from 1800-3600 s. Flow rate of 30 μL/min was typically used. The sensor chip was regenerated with 10 mM glycine, pH 1.5 with a contact time of 30 s flowing at 50 μL/min.

human KLK7, active form [6] = molecular target: T2, human KLK7, active form; assay: as above
Description: as §1

mouse KLK5 [7] = molecular target: T4, mouse KLK5 (mouse); assay: as above
T4 construct: also called mKLK5
Description: as §1

mouse KLK7 [8] = molecular target: T3, mouse KLK7; assay: as above
Description: as §1

human KLK5, active form [9] = molecular target: T1, human KLK5, active form; assay: SPR (Biacore), antibody captured on Protein A chip, active huKLK5 injected at 0.156-40 nM
Description: (§2) The sensor chip was regenerated with 10 mM glycine, pH 1.5 with a contact time of 30 seconds flowing at 50 μL/min.

human KLK7, active form [10] = molecular target: T2, human KLK7, active form; assay: SPR (Biacore), antibody captured on Protein A chip, active huKLK7 injected at 0.156-40 nM
Description: as §2

pro-form of human KLK5 = molecular target: T5, pro-form of human KLK5 (human, UniProt Q9Y337 23-293); assay: SPR (Biacore), antibody captured on Protein A chip, proform huKLK5 injected at 0.156-40 nM
T5 construct: Pro-form (zymogen); also called proform of huKLK5; proKLK5
Description: as §2

pro-form of human KLK7 = molecular target: T6, pro-form of human KLK7 (human, UniProt P49862 23-253); assay: SPR (Biacore), antibody captured on Protein A chip, proform huKLK7 injected at 0.156-40 nM
T6 construct: Pro-form (zymogen); also called proform of huKLK7; proKLK7
T6 sequence (P49862 23-253): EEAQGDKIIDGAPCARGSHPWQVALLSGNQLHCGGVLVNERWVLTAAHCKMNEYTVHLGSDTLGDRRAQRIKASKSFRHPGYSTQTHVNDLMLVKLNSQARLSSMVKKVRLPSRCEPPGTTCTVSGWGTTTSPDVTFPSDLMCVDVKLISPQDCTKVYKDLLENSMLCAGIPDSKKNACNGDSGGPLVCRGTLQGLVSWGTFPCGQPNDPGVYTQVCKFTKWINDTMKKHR
Description: as §2

T2 sequence (P49862 30-253): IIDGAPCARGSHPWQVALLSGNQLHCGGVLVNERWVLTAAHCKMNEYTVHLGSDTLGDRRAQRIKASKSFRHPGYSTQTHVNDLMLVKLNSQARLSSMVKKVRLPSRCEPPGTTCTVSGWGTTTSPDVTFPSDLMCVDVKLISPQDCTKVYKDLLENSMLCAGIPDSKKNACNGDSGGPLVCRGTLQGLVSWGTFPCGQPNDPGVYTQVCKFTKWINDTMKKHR

Binder | IC50(nM), inhibition of protease activity (cleavage of BOC-Val-Pro-Arg-AMC) (human KLK5, active form [1]) | IC50(nM), inhibition of protease activity (cleavage of KHLF-AMC) (human KLK7, active form [2]) | IC50(nM), inhibition of protease activity (cleavage of BOC-Val-Pro-Arg-AMC) (mouse KLK5 [3]) | IC50(nM), inhibition of protease activity (cleavage of KHLF-AMC) (mouse KLK7 [4]) | Kd (human KLK5, active form [5]) | Kd (human KLK7, active form [6]) | Kd (mouse KLK5 [7]) | Kd (mouse KLK7 [8]) | Kd (human KLK5, active form [9]) | Kd (human KLK7, active form [10]) | binding result (pro-form of human KLK5) | binding result (pro-form of human KLK7)
KLK5/KLK7-Dual-Ab2 (antibody, V domains shown, Captured on a Protein A chip as an antibody; also called KLK5/7-Dual-Ab2) VH: QLQLQESGPGLVKPSETLSLTCTVSGGSISSDDYYWVWIRQPPGKGLEWIGSIDYFASTYYNPSLKSRVTISVDTSKNQFSLKLSSVTAADTAVYYCARGRPLGYGARHDYYGMDVWGQGTTVTVSS VL: DIQMTQSPSSLSASVGDRVTITCRASQSISSYLNWYQQKPGKAPKLLIYSASSLQSGVPSRFSGSGSGTDFTLTISSLQPEDFATYYCQQSPYFPPLTFGGGTKVEIK | 0.25 nM | 0.25 nM | 17.2 nM | 5.13 nM | 0.01 nM | 0.0218 nM | 2.79 nM | 1.55 nM | – | – | – | –
KLK5/KLK7-Dual-Ab1 (antibody, V domains shown, Captured on a Protein A chip as an antibody; also called KLK5/7-Dual-Ab1) VH: QLQLQESGPGLVKPSETLSLTCTVSGGSISSSDYYWGWIRQPPGKGLEWIGSIYYSGSTYYNPSLKSRVTISVDTSKNQFSLKLSSVTAADTAVYYCARGRPLGYGARHYYYGMDVWGQGTTVTVSS VL: DIQMTQSPSSLSASVGDRVTITCRASQSISSYLNWYQQKPGKAPKLLIYSASSLQSGVPSRFSGSGSGTDFTLTISSLQPEDFATYYCQQSPPFPPLTFGGGTKVEIK | – | – | – | – | 1000 nM | 1.82 nM | – | 1 nM | – | – | – | –

Continued, values first:

IC50(nM), inhibition of protease activity (cleavage of BOC-Val-Pro-Arg-AMC) (human KLK5, active form [1]) | IC50(nM), inhibition of protease activity (cleavage of KHLF-AMC) (human KLK7, active form [2]) | IC50(nM), inhibition of protease activity (cleavage of BOC-Val-Pro-Arg-AMC) (mouse KLK5 [3]) | IC50(nM), inhibition of protease activity (cleavage of KHLF-AMC) (mouse KLK7 [4]) | Kd (human KLK5, active form [5]) | Kd (human KLK7, active form [6]) | Kd (mouse KLK5 [7]) | Kd (mouse KLK7 [8]) | Kd (human KLK5, active form [9]) | Kd (human KLK7, active form [10]) | binding result (pro-form of human KLK5) | binding result (pro-form of human KLK7) | Binder
0.25 nM | 0.21 nM | 24.1 nM | 5.28 nM | 0.141 nM | 0.0136 nM | 4.02 nM | 1.11 nM | – | – | – | – | KLK5/KLK7-Dual-Ab3 (antibody, V domains shown, Captured on a Protein A chip as an antibody; also called KLK5/7-Dual-Ab3) VH: QLQLQESGPGLVKPSETLSLTCTVSGGSISSDDYYWVWIRQPPGKGLEWIGSIDYYASTYYSPSLKSRVTISVDTSKNQFSLKLSSVTAADTAVYYCARGRPLGYGAKHYYYGMDVWGQGTTVTVSS VL: DIQMTQSPSSLSASVGDRVTITCRASQSISSYLNWYQQKPGKAPKLLIYSASSLQSGVPSRFSGSGSGTDFTLTISSLQPEDFATYYCQQSPYFPPLTFGGGTKVEIK
0.27 nM | 0.16 nM | 16.1 nM | 1.77 nM | 0.0243 nM | 0.002 nM | 3.15 nM | 0.129 nM | < 0.05 nM | < 0.05 nM | no binding (tested: 40 nM) | no binding (tested: 40 nM) | KLK5/KLK7-Dual-Ab4 (antibody, V domains shown, Captured on a Protein A chip or coupled to a CM5 chip as an antibody; also called KLK5/7-Dual-Ab4) VH: QLQLQESGPGLVKPSETLSLTCTVSGGSISSLDYYWVWIRQPPGKGLEWIGSIDYSGDTYYNPSLKSRVTISVDTSKNQFSLKLSSVTAADTAVYYCARGRPLGYGARHYYYAMDVWGQGTTVTVSS VL: DIQMTQSPSSLSASVGDRVTITCRASQSISSYLNWYQQKPGKAPKLLIYSASSLQSGVPSRFSGSGSGTDFTLTISSLQPEDFATYYCQQSPYFPPLTFGGGTKVEIK

From patent publication US20260258156A1 (TRIVENI BIO, published 2026)
